Laboratory results reported in the supplement of paper PMC12764529.
± gives the half width of the 95% confidence interval.

What was measured:
[1] = folding stability dG unfold from chymotrypsin proteolysis; higher = more stable
Outline: (§1)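 K50 was inferred by Bayesian fitting of sequencing counts obtained after protease digestion of designed mini-proteins. Unfolding free energy was derived by comparison with a sequence-predicted unfolded-state K50 and a shared folded-state K50, for each protease or both combined. The mini-proteins were under 80 residues, had no cysteine, were carried in a PA-tagged cDNA display construct, and were kept only if AlphaFold2 dimer inter-PAE exceeded 15.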

[2] = folding stability dG unfold from trypsin proteolysis; higher = more stable
Outline: as §1

[3] = folding stability dG unfold (combined trypsin and chymotrypsin); higher = more stable
Outline: as §1

Sequence | folding stability dG unfold [1] [kcal/mol] | folding stability dG unfold [2] [kcal/mol] | folding stability dG unfold [3] [kcal/mol]
SAGGMSLSDPRDIRKAAKLKEIEILVKELNDKGIEVKLDEISFIEGTEEITAIVTFPDGTKYEITINSAGGS [r8_277_TrMRF] | 1.02 ± 0.018 | 1.85 ± 0.042 | 1.42 ± 0.075
SAGGMSPEELASLSPEERRAVVEEALRERLARERPGAPPDFALEDVPVTVRDPATGTTTTVTVRLEAASAGG [r13_555_JUSTAS] | 0.109 ± 0.14 | 0.384 ± 0.11 | 0.177 ± 0.16
SAGGMSPELAADPNVKRVLRFPEPGVFLAYYPEKGLLLLTPPDGKVLLIEAKPEEAEKLVESGLKPESAGGS [r16_745_TrMRF] | -0.446 ± 0.19 | 0.028 ± 0.12 | -0.0606 ± 0.13
SAGGMSPVKVAEKTYVIPLPSSMTKEEAKEEVKKELVPKGIDKIDIPISEDPNKGTLIIKVTVYKYPNESAG [r5_924_JUSTAS] | 0.757 ± 0.27 | 0.297 ± 0.2 | 0.49 ± 0.35
SAGGMSSSSYTYTTPLSSLKAAHPDLSEEELLALAKEAAKAALEAEGVPVSSVTATLAPDGTLTIVDSAGGS [r8_368_JUSTAS] | 0.634 ± 0.12 | 0.862 ± 0.065 | 0.834 ± 0.14
SAGGMSTTKTVTSGGSTVTITTEPLPDGTTLSTVTVKSGGSPVTTITIPTSQLGEVAAAGGFAPADLLSAGG [r13_108_JUSTAS] | 0.172 ± 0.055 | 0.0387 ± 0.054 | 0.15 ± 0.065
SAGGMSTTYTLKYPGTTVTVTFNPGSVTVDDTDPANPVTKPLPVPPGKPLTLAEVKAALAAAGYAVAESAGG [r13_687_JUSTAS] | 0.0182 ± 0.33 | -0.204 ± 0.15 | 0.0161 ± 0.21
SAGGMSVKIEEKTHPETNEITINVEYDDIEKAKKEIAEKIKKENGNIPVTLVDKNGKPITIPLKELISAGGS [r8_236_JUSTAS] | 0.368 ± 0.03 | 0.0225 ± 0.087 | 0.317 ± 0.099
SAGGMSVRFRFTDEDDRIHVDEIIPGEGIMRVVVEGEDRPLVFTIDAPPDAAIQLIRDLFDGPFEVEASAGG [r13_141_TrMRF] | 0.849 ± 0.11 | -0.187 ± 0.26 | 0.596 ± 0.095
SAGGMSVTFEKEDKTYVITFEPSPEGGYLVTLEVLDPKTGEAKPVATAEFTEGSLEDAVVALLAAEESAGGS [r16_378_TrMRF] | 3.67 ± 0.08 | 4.08 ± 0.3 | 3.7 ± 0.12
SAGGMSVVIPVRPEDREEVRELLEALPSEDVKVVIYNPVTGEKREVTPEEARALLEATDEPLVIEVRSAGGS [r16_263_TrMRF] | 1.89 ± 0.023 | 1.68 ± 0.046 | 1.84 ± 0.041
SAGGMTEEEAKELAKELAEKYAEEKGIEEIELKIESVEKEGDKFTVKVKLTFPNEEKTITITIPKDLISAGG [r13_611_JUSTAS] | 3.21 ± 0.19 | 3.34 ± 0.21 | 3.24 ± 0.11
SAGGMTEVSEVERSVIPDEGIPVTLERVETTVTVPPTTYKDEKGEVLPPGAVVHTESTVTIEERPELSAGGS [r8_262_JUSTAS] | 0.095 ± 0.1 | 0.22 ± 0.036 | 0.257 ± 0.14
SAGGMTFETETITLEFPPEDEEEIRKRAEEIAEKLKKEYEKKGYKVEVEFSYDPETGVLTITIKFEKKSAGG [r13_755_JUSTAS] | 4.19 ± 0.067 | 3.57 ± 0.19 | 3.99 ± 0.11
SAGGMTFTITVTIPAKEKFYDPSKGIWRERELNRVITIPFSSSDIEKAKEEVRSKLPPDKYKITSVDSAGGS [r16_459_JUSTAS] | 1.21 ± 0.17 | 1.29 ± 0.04 | 1.19 ± 0.12
SAGGMTIRVEVFRDGELVETLEFEGSVEELLAKLPPEVTYVRIEVEKDGKTETVEFKTAEELKAALKSSAGG [r13_299_TrROS_Hall] | 3.33 ± 0.067 | 2.13 ± 0.076 | 2.91 ± 0.17
SAGGMTITFPEGITITFSPDNTATVTINFPGNPLTLTLNATTLEEVIETAKKAAEEFRKPPPKLVLKVSAGG [r13_896_JUSTAS] | 1.72 ± 0.1 | 1.13 ± 0.035 | 1.6 ± 0.096
SAGGMTITIDPTPDGVRIKIYDDGKPREIPVAPEVLELIQQNPTLEEIIRELFPPGHPIEKIEIEPWSAGGS [r16_567_TrROS] | 1.03 ± 0.17 | 1.57 ± 0.071 | 1.15 ± 0.22
SAGGMTITVTKKTKPEDVEKLVEEIKEELEKKGYNVKKIEVTYKVVKDPNSSNEIVELTLTIEVEKPSAGGS [r8_475_JUSTAS] | 5.03 ± 0.21 | 4.55 ± 0.89 | 5.28 ± 0.31
SAGGMTITVTVPEVPPDRTVTVEVYKPGEKLGSYSGTLNQPKNVTYTFTVPPATITINYSDGKTYPIPLSAG [r5_646_JUSTAS] | 3.4 ± 0.038 | 2.22 ± 0.19 | 3.01 ± 0.25
SAGGMTIVEVEYTAYDLNSNKSVVVKAYKDPSTGKMTITSSDGVEGEFDPVTKTISLPRGSKSVTLGSAGGS [r16_743_JUSTAS] | 0.623 ± 0.11 | 0.266 ± 0.074 | 0.521 ± 0.081
SAGGMTKIEVEYYPEKITVTVTTDNPSENPLDIIKKKTGFKIEGGEVLYPSPNVVVVKLKVDPKDLKKSAGG [r13_498_JUSTAS] | 1.07 ± 0.11 | 0.443 ± 0.11 | 0.799 ± 0.27
SAGGMTKTESEVFFEPDGSSSSAKVTITVDDGPLTANVTISPDSVTTTINYPDGSTVTTTTSVSPAASAGGS [r16_108_JUSTAS] | 1.48 ± 0.052 | 0.942 ± 0.081 | 1.27 ± 0.13
SAGGMTLEERAEALAAERGWTVTSIELVEEKPGEVKFRVTFRLPDGSLETVEITVKRPPPVPPDNLLSAGGS [r8_309_JUSTAS] | 3.726 ± 0.025 | 3.73 ± 0.11 | 3.74 ± 0.057
SAGGMTLEFELEAEPLEEVEKRVRELLRELGFPESVEITIEPKKPDDGSVIYPVKVTLNDPALEARLSAGGS [r8_85_JUSTAS] | 1.22 ± 0.036 | 1.04 ± 0.038 | 1.11 ± 0.097
SAGGMTLEITITFPGPEMLEEAKKIIDELGIELVNPTPNSLTVKAKGPEEVAKIKEEAKKLGFTVTGSAGGS [r16_88_JUSTAS] | 3.19 ± 0.086 | 2.92 ± 0.21 | 3.13 ± 0.14
